Data on three compounds can be found in patent US20050014193A1, “Identification of target-specific folding sites in peptides and proteins” (priority 2003, published 2005).

One experiment has as its target T1, angiotensin-II receptor (Homo sapiens, UniProt P30556).
T1 construct: cell membranes obtained from human neuroblastoma cells (KAN-TS); endogenous in cells; host or cells: KAN-TS human neuroblastoma cells (membranes)
T1 sequence (P30556 1-359): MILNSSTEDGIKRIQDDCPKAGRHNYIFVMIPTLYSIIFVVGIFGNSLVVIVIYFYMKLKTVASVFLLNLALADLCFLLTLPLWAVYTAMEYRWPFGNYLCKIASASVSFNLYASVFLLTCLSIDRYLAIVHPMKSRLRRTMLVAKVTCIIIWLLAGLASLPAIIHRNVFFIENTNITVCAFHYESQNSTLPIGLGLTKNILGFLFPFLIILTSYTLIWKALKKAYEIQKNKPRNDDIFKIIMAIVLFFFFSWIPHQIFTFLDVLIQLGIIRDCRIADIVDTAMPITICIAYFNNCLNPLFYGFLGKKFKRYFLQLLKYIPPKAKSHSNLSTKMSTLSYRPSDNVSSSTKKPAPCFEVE
Nature of the experiment: 125I-Tyr4,Sar1,Ile8-Angiotensin II binding inhibition, human neuroblastoma (KAN-TS) cell membranes. Conditions: 1 μM; KAN-TS cell membranes; Re-complexed. As for the experimental part:
The screening of compounds for binding to the angiotensin-II receptor was performed using cell membranes obtained from human neuroblastoma cells (KAN-TS). The assay was performed in triplicates, generally as described in Example 4 for oxytocin, except for measurement of receptor bound radioactivity. For angiotensin, a radioiodinated tracer ligand was used (instead of a tritiated ligand), which radioiodinated tracer facilitated direct measurement of bound radioactivity using a gamma counter. A final 1-3 nM concentration of ^125I-Tyr^4, Sar^1, Ile^8-Angiotensin II ligand (obtained from Perkin Elemer-NEN Life Sciences) was used as radiotracer and angiotensin-II (1 μM final assay concentration) was used to measure non-specific binding. After filtration of the incubation medium, followed by washings, drying the filters and punching the filters into test tubes, the filters were counted for radioactivity in a gamma counter. An activity profile for the test compounds was generated by ability to inhibit specific binding of the radiotracer to its receptor.

The target in a further experiment is T2, uPA receptor (Homo sapiens, UniProt Q03405).
T2 construct: endogenous in cells; host or cells: U937 cells
T2 sequence (Q03405 23-305): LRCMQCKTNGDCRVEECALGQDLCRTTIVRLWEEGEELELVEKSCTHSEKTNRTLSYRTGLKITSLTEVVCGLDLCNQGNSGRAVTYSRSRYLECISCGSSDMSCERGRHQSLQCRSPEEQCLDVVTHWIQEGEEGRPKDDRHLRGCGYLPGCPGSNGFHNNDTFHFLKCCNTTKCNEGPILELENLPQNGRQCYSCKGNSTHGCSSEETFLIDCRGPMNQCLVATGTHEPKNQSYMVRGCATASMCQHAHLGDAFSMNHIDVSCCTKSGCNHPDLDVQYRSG
Nature of the experiment: uPA receptor-binding assay using U937 cells and ATF as competitive ligand. Conditions: within the Table 1 series.

A further experiment has as its target T3, MC1-R (Mus musculus, UniProt Q01727).
T3 construct: B-16 mouse melanoma cells (containing MC1-R); endogenous in cells; host or cells: B-16 mouse melanoma cells (membranes)
As to the kind of experiment: Competitive inhibition of 125I-NDP-alpha-MSH binding, B-16 mouse melanoma cell membranes. From the text: (§1) Ac-Nle-Ala-His-D-Phe-Arg-Trp-NH2 is a known receptor-binding sequence for melanotropin receptors. […] A series of metallopeptides based on this sequence were synthesized by inserting a Cys residue after the 2 position and through the n+1 position and complexing the resulting Cys-containing peptide with an Re-oxo metal ion core as described Example 1. The resulting metallopeptides were screened for inhibiting the binding of 125-I-NDP-alpha-MSH radioligand using B-16 mouse melanoma cells for MCR-1 and cloned human MCR-2, -3 and -4 receptor transfected 293 cells.
(§2) The competitive inhibition binding assay was conducted using membranes prepared from hMC3-R, hMC4-R, hMC5-R, and B-16 mouse melanoma cells (containing MC1-R) using 0.4 nM ^125I-NDP-alpha-MSH (New England Nuclear, Boston, Mass., USA) in 50 mM HEPES buffer containing 1 mM MgCl2, 2 mM CaCl2, and 5 mM KCl, at pH 7.2. The assay tube also contained a chosen concentration of the test peptide of this invention, complexed to a rhenium metal ion as indicated, for determining its efficacy in inhibiting the binding of ^125I-NDP-alpha-MSH to its receptor. […] The filter was dried and counted in a gamma counter for remaining radioactivity bound to the membranes. 100% specific binding was defined as the difference in radioactivity (cpm) bound to cell membranes in the absence and presence of 1 μM alpha-MSH. […]

The target of the next experiment is T4, hMC4-R (Homo sapiens, UniProt P32245).
T4 construct: expressed in transfected cells; host or cells: 293 cells
T4 sequence (P32245 whole entry): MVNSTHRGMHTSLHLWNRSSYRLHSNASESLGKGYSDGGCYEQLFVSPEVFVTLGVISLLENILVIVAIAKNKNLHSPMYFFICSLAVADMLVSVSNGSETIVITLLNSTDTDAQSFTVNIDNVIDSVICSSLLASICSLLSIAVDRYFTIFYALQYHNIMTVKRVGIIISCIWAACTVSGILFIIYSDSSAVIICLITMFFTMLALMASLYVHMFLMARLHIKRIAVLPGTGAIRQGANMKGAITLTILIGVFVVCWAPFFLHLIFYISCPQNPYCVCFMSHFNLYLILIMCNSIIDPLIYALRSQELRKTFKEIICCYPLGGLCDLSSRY
Nature of the experiment: Competitive inhibition of 125I-NDP-alpha-MSH binding, hMC4-R membranes.
Description: as §1, §2

Square brackets hold non-standard residues; d marks the D form. Ends that are not written are not given here. Peptide text beside a SMILES is read from it. Nle = CCCC[C@H](N)C(=O)O; Sar = CNCC(=O)O

A word on the % Inhibition: it is the drop in the measured response relative to a control, in per cent. A word on the Ki: it is a measure of affinity in units of concentration, obtained from inhibition or displacement. A high value points to a looser hold on the target.

T3 sequence (Q01727 whole entry): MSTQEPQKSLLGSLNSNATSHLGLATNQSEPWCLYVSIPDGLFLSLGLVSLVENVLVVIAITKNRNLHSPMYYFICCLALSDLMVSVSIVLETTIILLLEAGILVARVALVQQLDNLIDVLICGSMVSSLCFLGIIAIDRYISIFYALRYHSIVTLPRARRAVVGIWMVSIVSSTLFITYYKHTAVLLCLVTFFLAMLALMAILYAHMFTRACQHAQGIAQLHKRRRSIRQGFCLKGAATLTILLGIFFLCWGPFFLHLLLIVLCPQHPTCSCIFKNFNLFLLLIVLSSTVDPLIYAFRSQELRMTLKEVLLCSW

For the compound “Sar-Arg-Cys-Val-Tyr-Ile-His-Pro-Thr ([Sar]RCVYIHPT; not fully specified (bridges); printed as Sar-Arg-Cys-Val-Tyr-Ile-His-Pro-Thr; also: oxorhenium(V) N3S1 metal chelate (Re=O)) [SEQ ID NO:165]”, the “% Inhibition at 1 μM (Angiotensin Receptor)” value with angiotensin-II receptor came out at 1%.

“Ac-Val-Ser-Asn-Lys-Tyr-Phe-Ser-Asn-Ile-His-Cys-Trp-NH2 (Ac-VSNKYFSNIHCW-NH2; not fully specified (bridges); printed as Ac-Val-Ser-Asn-Lys-Tyr-Phe-Ser-Asn-Ile-His-Cys-Trp-NH2; also: oxorhenium(V) N3S1 metal chelate (Re=O)) [SEQ ID NO: 3]”: the “relative potency in uPA receptor binding” value with uPA receptor was “most potent of all these molecules”.

With `CCCC[C@H](NC(C)=O)C(=O)N[C@@H](C)C(=O)N[C@@H](Cc1c[nH]cn1)C(=O)N[C@H](Cc1ccccc1)C(=O)N[C@@H](CCCNC(=N)N)C(=O)N[C@@H](Cc1c[nH]c2ccccc12)C(N)=O` [Ac-Nle-Ala-His-D-Phe-Arg-Trp-NH2] (Ac-[Nle]AH[dF]RW-NH2), the results for the Ki at MC1-R and on hMC4-R were 0.1 µM and 2 µM, respectively.
